From patent US11278600B2, “Human alpha-galactosidase variants” (Codexis, Inc., priority 2014, dated 2022)
Numbering of substitutions follows the chain as printed.

Experiments:
Assay type in all cases: biochemical
[1] = HTP-analysis of yeast culture supernatants, no challenge (MUGal hydrolysis); conditions: activity of the variant/activity of Rd4BB (SEQ ID NO: 15)
Method in brief: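 GLA variants were expressed in INVSc1 yeast grown in SD-Ura broth with glucose at 30° C., and culture supernatants were collected after 66-84 h. Supernatant was mixed with McIlvaine buffer pH 4.8 and MUGal (2 mM stock) in 50 mM citrate, 200 mM KCl, pH 4.6, incubated at 37° C. for 30-180 minutes, then quenched with sodium carbonate.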

[2] = HTP-analysis of supernatants pretreated with acid (MUGal hydrolysis); conditions: activity of the variant/activity of Rd4BB (SEQ ID NO: 15); challenge at pH 3.7
Method in brief: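 Yeast INVSc1 supernatant, GLA variants; acid challenge: McIlvaine pH 3.3-4.3, 37° C., 1-3 h. Assay: MUGal in McIlvaine pH 4.8 plus citrate pH 4.3, 37° C., 30-180 min, Na2CO3 stop, Ex 355/Em 448 nm.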

[3] = HTP-analysis of supernatants pretreated with base (MUGal hydrolysis); conditions: activity of the variant/activity of Rd4BB (SEQ ID NO: 15); challenge at pH 9.65
Method in brief: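 Fluorescence of released 4-MU (Ex 355 nm, Em 448 nm) after carbonate quench reports MUGal hydrolysis by GLA variants secreted from INVSc1 yeast. Before the acidic (pH 4.3-4.8) 30-180 min reaction at 37° C, supernatants had been pre-incubated at pH 7.0-9.7 for 1-18 h at 37° C.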

B1: 423 (protein)
chain: LDNGLARTPTMGWLHWERFMCNLDCQEEPDSCISEKLFMEMAERMVSEGWKDAGYEYLCIDDCWMAPQRDSEGRLQADPQRFPHGIRQLANYVHSKGLKLGIYADVGNKTCAGFPGSFGYYDIDAQTFADWGVDLLKFDGCYCDSLENLADGYKHMSLALNATGRSIVYSCEWPLYMWPFQKPNYTEIRQYCNHWRNFADIDDSWKSIKSILDWTSRNQERIVDVAGPGGWNDPDMLVIGNFGLSWDQQVTQMALWAIMAAPLFMSNDLRHISPQAKALLQDKDVIAINQDPLGKQGYQLRKGDNFEVWERPLSGDAWAVAIINRQEIGGPRSYTIPVASLGKGVACNPACFITQLLPVKRQLGFYNWTSRLKSHINPTGTVLLQLENTMQMSLKDLL
modifications: Synthetic Polypeptide sequence of Variant No. 423 of mature Human GLA
With B1 the “Relative Activity of GLA Variants After No Challenge (NC)” value [1] was “+ (0.5 to 1.5 relative activity over Rd4BB (SEQ ID NO: 15))”, the “Relative Activity of GLA Variants After Challenge at pH 3.7” value (“Relative Activity … at pH 3.7” for short) [2] was “+ (0.5 to 1.5 relative activity over Rd4BB (SEQ ID NO: 15))” and the “Relative Activity of GLA Variants After Challenge at pH 9.65” value (shortened to “Relative Activity … at pH 9.65”) [3] was “+ (0.5 to 1.5 relative activity over Rd4BB (SEQ ID NO: 15))”.

B2: 429 (protein)
chain: B1 chain with A162R, L255C
modifications: Synthetic Polypeptide sequence of Variant No. 429 of mature Human GLA
For B2, the “Relative Activity of GLA Variants After No Challenge (NC)” value [1] was “+ (0.5 to 1.5 relative activity over Rd4BB (SEQ ID NO: 15))”, the “Relative Activity … at pH 3.7” value [2] was “+ (0.5 to 1.5 relative activity over Rd4BB (SEQ ID NO: 15))” and the “Relative Activity … at pH 9.65” value [3] was “− (<0.5 relative activity over Rd4BB (SEQ ID NO: 15))”.

B3: 425 (protein)
chain: B1 chain with A162R, H271E
modifications: Synthetic Polypeptide sequence of Variant No. 425 of mature Human GLA
For B3, the “Relative Activity of GLA Variants After No Challenge (NC)” value [1] was “+ (0.5 to 1.5 relative activity over Rd4BB (SEQ ID NO: 15))”, the “Relative Activity … at pH 3.7” value [2] was “− (<0.5 relative activity over Rd4BB (SEQ ID NO: 15))” and the “Relative Activity … at pH 9.65” value [3] was “+ (0.5 to 1.5 relative activity over Rd4BB (SEQ ID NO: 15))”.

B4: 431 (protein)
chain: B1 chain with A162R, R270G
modifications: Synthetic Polypeptide sequence of Variant No. 431 of mature Human GLA
In the case of B4, the “Relative Activity of GLA Variants After No Challenge (NC)” value [1] is reported as “+ (0.5 to 1.5 relative activity over Rd4BB (SEQ ID NO: 15))”, the “Relative Activity … at pH 3.7” value [2] is reported as “− (<0.5 relative activity over Rd4BB (SEQ ID NO: 15))” and the “Relative Activity … at pH 9.65” value [3] is reported as “− (<0.5 relative activity over Rd4BB (SEQ ID NO: 15))”.

B5: 427 (protein)
chain: B1 chain with A162R, L263G
modifications: Synthetic Polypeptide sequence of Variant No. 427 of mature Human GLA
With B5 the “Relative Activity of GLA Variants After No Challenge (NC)” value [1] was “+ (0.5 to 1.5 relative activity over Rd4BB (SEQ ID NO: 15))”, the “Relative Activity … at pH 3.7” value [2] was “− (<0.5 relative activity over Rd4BB (SEQ ID NO: 15))” and the “Relative Activity … at pH 9.65” value [3] was “− (<0.5 relative activity over Rd4BB (SEQ ID NO: 15))”.

B6: 364 (protein)
chain: B1 chain with M39H, A162R
modifications: Synthetic Polypeptide sequence of Variant No. 364 of mature Human GLA
In the case of B6, the “Relative Activity of GLA Variants After No Challenge (NC)” value [1] is reported as “+ (0.5 to 1.5 relative activity over Rd4BB (SEQ ID NO: 15))”, the “Relative Activity … at pH 3.7” value [2] is reported as “+ (0.5 to 1.5 relative activity over Rd4BB (SEQ ID NO: 15))” and the “Relative Activity … at pH 9.65” value [3] is reported as “− (<0.5 relative activity over Rd4BB (SEQ ID NO: 15))”.

B7: 433 (protein)
chain: B1 chain with A162R, H271Q
modifications: Synthetic Polypeptide sequence of Variant No. 433 of mature Human GLA
In the case of B7, the “Relative Activity of GLA Variants After No Challenge (NC)” value [1] is reported as “+ (0.5 to 1.5 relative activity over Rd4BB (SEQ ID NO: 15))”, the “Relative Activity … at pH 3.7” value [2] is reported as “+ (0.5 to 1.5 relative activity over Rd4BB (SEQ ID NO: 15))” and the “Relative Activity … at pH 9.65” value [3] is reported as “+ (0.5 to 1.5 relative activity over Rd4BB (SEQ ID NO: 15))”.

B8: 428 (protein)
chain: B1 chain with A162R, M259S
modifications: Synthetic Polypeptide sequence of Variant No. 428 of mature Human GLA
With B8 the “Relative Activity of GLA Variants After No Challenge (NC)” value [1] was “+ (0.5 to 1.5 relative activity over Rd4BB (SEQ ID NO: 15))”, the “Relative Activity … at pH 3.7” value [2] was “+ (0.5 to 1.5 relative activity over Rd4BB (SEQ ID NO: 15))” and the “Relative Activity … at pH 9.65” value [3] was “− (<0.5 relative activity over Rd4BB (SEQ ID NO: 15))”.

B9: 430 (protein)
chain: B1 chain with A162R, H271T
modifications: Synthetic Polypeptide sequence of Variant No. 430 of mature Human GLA
With B9 the “Relative Activity of GLA Variants After No Challenge (NC)” value [1] was “+ (0.5 to 1.5 relative activity over Rd4BB (SEQ ID NO: 15))”, the “Relative Activity … at pH 3.7” value [2] was “− (<0.5 relative activity over Rd4BB (SEQ ID NO: 15))” and the “Relative Activity … at pH 9.65” value [3] was “+ (0.5 to 1.5 relative activity over Rd4BB (SEQ ID NO: 15))”.

B10: 424 (protein)
chain: B1 chain with A162R, L255E
modifications: Synthetic Polypeptide sequence of Variant No. 424 of mature Human GLA
In the case of B10, the “Relative Activity of GLA Variants After No Challenge (NC)” value [1] is reported as “+ (0.5 to 1.5 relative activity over Rd4BB (SEQ ID NO: 15))”, the “Relative Activity … at pH 3.7” value [2] is reported as “+ (0.5 to 1.5 relative activity over Rd4BB (SEQ ID NO: 15))” and the “Relative Activity … at pH 9.65” value [3] is reported as “− (<0.5 relative activity over Rd4BB (SEQ ID NO: 15))”.

B11: 426 (protein)
chain: B1 chain with A162R, M259E
modifications: Synthetic Polypeptide sequence of Variant No. 426 of mature Human GLA
For B11, the “Relative Activity of GLA Variants After No Challenge (NC)” value [1] was “+ (0.5 to 1.5 relative activity over Rd4BB (SEQ ID NO: 15))”, the “Relative Activity … at pH 3.7” value [2] was “− (<0.5 relative activity over Rd4BB (SEQ ID NO: 15))” and the “Relative Activity … at pH 9.65” value [3] was “− (<0.5 relative activity over Rd4BB (SEQ ID NO: 15))”.

B12: 432 (protein)
chain: B1 chain with A162R
modifications: Synthetic Polypeptide sequence of Variant No. 432 of mature Human GLA
For B12, the “Relative Activity of GLA Variants After No Challenge (NC)” value [1] was “+ (0.5 to 1.5 relative activity over Rd4BB (SEQ ID NO: 15))”, the “Relative Activity … at pH 3.7” value [2] was “− (<0.5 relative activity over Rd4BB (SEQ ID NO: 15))” and the “Relative Activity … at pH 9.65” value [3] was “+ (0.5 to 1.5 relative activity over Rd4BB (SEQ ID NO: 15))”.
